Assay results reported in publication PMC11846989 (Communications Biology, 2025).

B1: full-length human GBP2 (guanylate-binding protein 2), wild type (natural protein, UniProt P32456 1-591, looked up)
chain: MAPEINLPGPMSLIDNTKGQLVVNPEALKILSAITQPVVVVAIVGLYRTGKSYLMNKLAGKKNGFSLGSTVKSHTKGIWMWCVPHPKKPEHTLVLLDTEGLGDIEKGDNENDSWIFALAILLSSTFVYNSMGTINQQAMDQLHYVTELTDRIKANSSPGNNSVDDSADFVSFFPAFVWTLRDFTLELEVDGEPITADDYLELSLKLRKGTDKKSKSFNDPRLCIRKFFPKRKCFVFDWPAPKKYLAHLEQLKEEELNPDFIEQVAEFCSYILSHSNVKTLSGGIPVNGPRLESLVLTYVNAISSGDLPCMENAVLALAQIENSAAVEKAIAHYEQQMGQKVQLPTETLQELLDLHRDSEREAIEVFMKNSFKDVDQMFQRKLGAQLEARRDDFCKQNSKASSDCCMALLQDIFGPLEEDVKQGTFSKPGGYRLFTQKLQELKNKYYQVPRKGIQAKEVLKKYLESKEDVADALLQTDQSLSEKEKAIEVERIKAESAEAAKKMLEEIQKKNEEMMEQKEKSYQEHVKQLTEKMERDRAQLMAEQEKTLALKLQEQERLLKEGFENESKRLQKDIWDIQMRSKSLEPICNIL
B2: human GBP2 G domain (1-309), wild type (domain or fragment, UniProt P32456 1-309, looked up)
chain: MAPEINLPGPMSLIDNTKGQLVVNPEALKILSAITQPVVVVAIVGLYRTGKSYLMNKLAGKKNGFSLGSTVKSHTKGIWMWCVPHPKKPEHTLVLLDTEGLGDIEKGDNENDSWIFALAILLSSTFVYNSMGTINQQAMDQLHYVTELTDRIKANSSPGNNSVDDSADFVSFFPAFVWTLRDFTLELEVDGEPITADDYLELSLKLRKGTDKKSKSFNDPRLCIRKFFPKRKCFVFDWPAPKKYLAHLEQLKEEELNPDFIEQVAEFCSYILSHSNVKTLSGGIPVNGPRLESLVLTYVNAISSGDLPC

Assays:
SEC-MALS = molecular target: the molecule itself; assay: SEC-MALS
SEC = molecular target: the molecule itself; assay: SEC

Protein	stoichiometry N (SEC-MALS)	stoichiometry N (SEC)
B1	2	
B2		2
